Laboratory results taken from patent US20260125478A1 (VIELA BIO, published 2026).
Residue numbers refer to the chain shown, from its start. In names and notes the source's numbering stands. Values belong to the binder of their own block, whether it stands above or below them.

Columns and labels:
[1] = molecular target: T1, human FcγRIIA 131H on blood cells of 131H/H donors (human, UniProt P12318 34-317); experiment: cell-based or functional assay
T1 sequence (looked up): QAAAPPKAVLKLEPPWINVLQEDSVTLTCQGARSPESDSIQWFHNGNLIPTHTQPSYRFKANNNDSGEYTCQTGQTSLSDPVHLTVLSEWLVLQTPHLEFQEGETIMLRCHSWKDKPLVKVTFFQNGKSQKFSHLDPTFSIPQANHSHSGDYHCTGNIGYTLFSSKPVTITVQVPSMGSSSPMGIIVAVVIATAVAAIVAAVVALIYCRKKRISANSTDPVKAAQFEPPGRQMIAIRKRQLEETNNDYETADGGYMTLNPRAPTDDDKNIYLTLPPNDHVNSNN

[2] = molecular target: T2, human FcγRIIA 131R on blood cells of 131R/R donors (human, UniProt P12318 34-317); experiment: cell-based or functional assay
T2 sequence: T1 sequence (looked up) with H134R

[3] = molecular target: T1, human FcγRIIA 131H on blood cells of …; experiment: cell-based or functional assay; remark: listed apart in the source
[4] = molecular target: T2, human FcγRIIA 131R on blood cells of …; experiment: cell-based or functional assay; remark: listed apart in the source
[5] = molecular target: cynomolgus monkey FcγRIIA on blood cells (cynomolgus monkey); experiment: cell-based or functional assay
[6] = molecular target: T3, Human CD32A 131R extracellular domain, 6xHis_Flag tagged (human, UniProt P12318 34-217); experiment: Biacore; IgG1-TM captured on a Protein G chip, CD32A as analyte, 1:1 Langmuir fit, average of two experiments
T3 construct: also called Hu CD32A_131Arg; human CD32A_131 Arg
T3 chain: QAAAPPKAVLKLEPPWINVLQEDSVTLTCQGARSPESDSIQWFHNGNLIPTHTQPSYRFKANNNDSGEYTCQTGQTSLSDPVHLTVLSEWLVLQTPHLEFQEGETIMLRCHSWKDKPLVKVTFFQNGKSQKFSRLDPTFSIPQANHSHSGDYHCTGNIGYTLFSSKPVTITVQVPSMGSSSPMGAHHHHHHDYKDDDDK

[7] = molecular target: T4, Human CD32A 131H extracellular domain, 6xHis_Flag tagged (human, UniProt P12318 34-217); experiment: as above
T4 construct: Used unlabelled as the analyte in Biacore; also called Hu CD32A_131His
T4 sequence: T3 chain with R134H

[8] = molecular target: T5, cynomolgus CD32A version 3, 6xHis tagged (cynomolgus monkey); experiment: as above
T5 construct: also called Cyno CD32A; cyno CD32A (version 3)
T5 chain: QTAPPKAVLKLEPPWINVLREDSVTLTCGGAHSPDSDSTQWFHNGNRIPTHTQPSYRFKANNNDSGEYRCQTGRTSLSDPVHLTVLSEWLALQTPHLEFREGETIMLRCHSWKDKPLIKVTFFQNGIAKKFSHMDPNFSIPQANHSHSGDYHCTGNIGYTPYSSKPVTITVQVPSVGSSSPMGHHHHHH

[9] = molecular target: T4, Human CD32A 131H extracellular domain, …; experiment: HTRF epitope competition: sample IgG titrated against binding of mouse IV.3 IgG to biotinylated human CD32A 131H
Protocol: Subsequently, a potential […] site was removed in VL CDR1 (N28L) to reduce the risk of chemical modification during manufacture.
5 μl is added to the assay plate (384 black, shallow well, Costar, 3676), to give a final concentration of 2.0 nM. […] 5 μl of each IgG sample is transferred to the assay plate using a MiniTrak™ (Perkin Elmer). […] Assay plates were incubated for 3 hours at room temperature prior to reading time resolved fluorescence at 620 nm and 665 nm emission wavelengths using an EnVision plate reader (Perkin Elmer).

[10] = molecular target: T6, recombinant human FcγRI (ELISA coat, generated at MedImmune) (human, UniProt P12314 16-292, limits assumed); experiment: ELISA on plate-coated FcγRI (2 µg/ml), detection with goat anti-human Fc-HRP
T6 construct: also called CD64
Protocol: (§1) Plates were washed five times with 200 μl of wash buffer (PBS containing 0.1% Tween 20), blocked with blocking buffer containing 5% milk in PBS for 1 hour at room temperature, and washed five additional times with wash buffer. Three-fold serial dilutions of the test antibody or control antibody (R347-Tm) were added to wells in duplicate. Plates were incubated for 2 hours at room temperature, and washed five times with wash buffer. Binding of the antibodies to the FcγRs was detected by adding 50 μl of goat anti-human Fc-HRP (Jackson ImmunoResearch Laboratories, PA) to the wells and incubating for 1 hour at room temperature, washing 10 times, and adding 50 μl TMB substrate (Pierce Biotechnology, MA). The color reaction was stopped with 50 μl 0.2M […] and the absorbance was measured using a spectrophotometer (Molecular Devices, CA) at […].

[11] = molecular target: T7, recombinant FcγRIIB (ELISA coat, generated at MedImmune) (UniProt P31994 43-217, limits assumed); experiment: ELISA on plate-coated FcγRIIB (2 µg/ml), detection with goat anti-human Fc-HRP
T7 construct: also called CD32B
T7 sequence (looked up): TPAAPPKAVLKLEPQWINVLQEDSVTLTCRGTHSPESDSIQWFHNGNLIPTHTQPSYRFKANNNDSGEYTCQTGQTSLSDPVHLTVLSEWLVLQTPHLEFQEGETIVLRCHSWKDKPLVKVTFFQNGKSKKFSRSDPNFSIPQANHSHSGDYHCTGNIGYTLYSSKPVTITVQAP
Protocol: as §1

[12] = molecular target: T8, recombinant human FcγRIIIA-158F allotype (ELISA coat, generated at MedImmune) (human, UniProt P08637 17-208, limits assumed); experiment: ELISA on plate-coated FcγRIIIA-158F (2 µg/ml), detection with goat anti-human Fc-HRP
T8 construct: also called FcγRIII-158F allotype; CD16A 158F
Protocol: as §1

[13] = molecular target: T9, recombinant human FcγRIIIA-158V allotype (ELISA coat, generated at MedImmune) (human, UniProt P08637 17-208, limits assumed); experiment: ELISA on plate-coated FcγRIIIA-158V (2 µg/ml), detection with goat anti-human Fc-HRP
T9 construct: also called FcγRIII-158V allotype; CD16A 158V
Protocol: as §1

[14] = molecular target: T10, recombinant FcγRIIA-131H/H allotype (ELISA coat, generated at MedImmune) (human, UniProt P12318 34-217, limits assumed); experiment: ELISA on plate-coated FcγRIIA-131H/H (2 µg/ml), detection with goat anti-human Fc-HRP
T10 construct: also called human FcγRIIA; CD32A
T10 sequence (looked up): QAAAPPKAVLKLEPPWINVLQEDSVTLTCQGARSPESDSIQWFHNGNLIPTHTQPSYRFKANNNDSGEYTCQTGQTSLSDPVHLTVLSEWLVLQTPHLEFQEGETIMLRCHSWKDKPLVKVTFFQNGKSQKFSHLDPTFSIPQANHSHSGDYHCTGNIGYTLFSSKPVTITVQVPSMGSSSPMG
Protocol: as §1

[15] = molecular target: T3, Human CD32A 131R extracellular domain, …; experiment: HTRF epitope competition: sample IgG titrated against binding of mouse IV.3 IgG to human CD32a 131R
[16] = molecular target: T4, Human CD32A 131H extracellular domain, …; experiment: HTRF epitope competition; competitor IV.3 IgG on biotinylated human CD32A 131H

T6 sequence (P12314 16-292 limits assumed): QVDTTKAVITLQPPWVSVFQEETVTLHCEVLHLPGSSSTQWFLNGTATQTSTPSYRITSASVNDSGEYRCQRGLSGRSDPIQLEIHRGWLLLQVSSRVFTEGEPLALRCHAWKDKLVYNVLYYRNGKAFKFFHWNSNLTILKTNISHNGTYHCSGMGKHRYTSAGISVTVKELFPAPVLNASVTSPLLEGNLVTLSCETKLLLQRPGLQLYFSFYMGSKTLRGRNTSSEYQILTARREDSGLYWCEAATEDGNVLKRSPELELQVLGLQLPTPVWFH
T9 sequence (P08637 17-208 F176V limits assumed): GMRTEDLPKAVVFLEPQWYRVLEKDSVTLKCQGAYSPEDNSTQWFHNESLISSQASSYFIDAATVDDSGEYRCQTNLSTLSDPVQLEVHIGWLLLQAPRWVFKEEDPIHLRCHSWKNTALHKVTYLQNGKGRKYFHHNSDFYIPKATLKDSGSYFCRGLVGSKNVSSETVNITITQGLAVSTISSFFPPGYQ
T8 sequence (P08637 17-208 limits assumed): as the sequence (P08637 17-208 F176V limits assumed) above, with V160F counted along it

B2: 32LO0350 (antibody, human IgG1, V domains shown)
VH: QVQLVQSGAEVKKPGASVKVSCKASGYTFTNYGMNWVRQAPGQRLEWMGWLNTYTGESWYPDDFKGRVTITRDTSASTAYMELSSLRSEDTAVYYCARGDYGYDDPLDYWGQGTLVTVSS
VL: DIVMTQSPLSLPVTPGEPASISCRSSKSLLHTNRNTYLHWFLQKPGQSPQLLIYRMSVLASGVPDRFSGSGSGTDFTLKISRVEAEDVGVYYCMQHLEYPLTFGQGTKLEIK
notes: also called optimized IV.3 clone 32LO0350
IC50 of the loss of surface FcγRIIA (M.F.I of IV.3-Alexa 647) on monocytes, whole blood, 2 h at 37 °C [3]: 0.0692 nM
IC50 of the loss of surface FcγRIIA (M.F.I of IV.3-Alexa 647) on monocytes, whole blood, 2 h at 37 °C [4]: 0.0537 nM
IC50 of the loss of surface FcγRIIA (M.F.I of IV.3-Alexa 647) on cynomolgus monocytes, whole blood, 2 h at 37 °C [5]: 1.2 nM
binding result [10]: no binding (tested: about 15000 ng/ml)
binding result [11]: no binding (tested: about 15000 ng/ml)
binding result [12]: no binding (tested: about 15000 ng/ml)
binding result [13]: no binding (tested: about 15000 ng/ml)
EC50 (read off the curve) [14]: ~5 ng/mL
binding result [15]: binds

B4: 32LO0354 (antibody, human IgG1, V domains shown)
VH: B2 VH with W59Y
VL: B2 VL
notes: also called optimized IV.3 clone 32LO0354
IC50 of the loss of surface FcγRIIA (M.F.I of IV.3-Alexa 647) on monocytes, whole blood, 2 h at 37 °C [3]: 0.0417 nM
IC50 of the loss of surface FcγRIIA (M.F.I of IV.3-Alexa 647) on monocytes, whole blood, 2 h at 37 °C [4]: 0.039 nM
IC50 of the loss of surface FcγRIIA (M.F.I of IV.3-Alexa 647) on cynomolgus monocytes, whole blood, 2 h at 37 °C [5]: 5.14 nM
binding result [10]: no binding (tested: about 15000 ng/ml)
binding result [11]: no binding (tested: about 15000 ng/ml)
binding result [12]: no binding (tested: about 15000 ng/ml)
binding result [13]: no binding (tested: about 15000 ng/ml)
EC50 (read off the curve) [14]: ~5 ng/mL
binding result [15]: binds

B5: 32LO0355 (antibody, human IgG1, V domains shown)
VH: B2 VH
VL: B2 VL with R34K
notes: also called optimized IV.3 clone 32LO0355
IC50 of the loss of surface FcγRIIA (M.F.I of IV.3-Alexa 647) on monocytes, whole blood, 2 h at 37 °C [3]: 0.0915 nM
IC50 of the loss of surface FcγRIIA (M.F.I of IV.3-Alexa 647) on monocytes, whole blood, 2 h at 37 °C [4]: 0.0644 nM
IC50 of the loss of surface FcγRIIA (M.F.I of IV.3-Alexa 647) on cynomolgus monocytes, whole blood, 2 h at 37 °C [5]: 1.01 nM
binding result [10]: no binding (tested: about 15000 ng/ml)
binding result [11]: no binding (tested: about 15000 ng/ml)
binding result [12]: no binding (tested: about 15000 ng/ml)
binding result [13]: no binding (tested: about 15000 ng/ml)
EC50 (read off the curve) [14]: ~5 ng/mL
binding result [15]: binds

The next lines start with the values.

EC50 of FcγRIIA internalization from the monocyte surface (whole blood FACS assay) [1]: 0.19 nM
EC50 of FcγRIIA internalization from the monocyte surface (whole blood FACS assay) [2]: 0.2 nM
IC50 of the loss of surface FcγRIIA (M.F.I of IV.3-Alexa 647) on monocytes, whole blood, 2 h at 37 °C [3]: 0.191 nM
IC50 of the loss of surface FcγRIIA (M.F.I of IV.3-Alexa 647) on monocytes, whole blood, 2 h at 37 °C [4]: 0.198 nM
IC50 of the loss of surface FcγRIIA (M.F.I of IV.3-Alexa 647) on cynomolgus monocytes, whole blood, 2 h at 37 °C [5]: 7.82 nM
Kd [6]: 0.22 nM
koff [6]: 0.00129 s⁻¹
kon [6]: 5.95e+06 M⁻¹ s⁻¹
Kd [7]: 0.22 nM
koff [7]: 0.000681 s⁻¹
kon [7]: 3.03e+06 M⁻¹ s⁻¹
Kd [8]: 44.1 nM
koff [8]: 0.204 s⁻¹
kon [8]: 4.63e+06 M⁻¹ s⁻¹
IC50 (read off the curve) [9]: ~2 nM
B1: chimeric IV.3 (human IgG1-TM) (antibody, V domains shown)
VH: QIQLVQSGPELKKPGETVKISCKASGYTFTNYGMNWVKQAPGKGLKWMGWLNTYTGESIYPDDFKGRFAFSSETSASTAYLQINNLKNEDMATYFCARGDYGYDDPLDYWGQGTSVTVSS
VL: DIVMTQAAPSVPVTPGESVSISCRSSKSLLHTNGNTYLHWFLQRPGQSPQLLIYRMSVLASGVPDRFSGSGSGTAFTLSISRVEAEDVGVFYCMQHLEYPLTFGAGTKLELK
notes: also called parent IV.3 chimeric Ab; chimeric IV.3 antibody

fold loss of potency in the IV.3 epitope competition assay (the next sentence compares with the mouse IgG) [16]: 10 fold
B3: fully humanized IV.3 IgG1 (VH and VL fully humanized, before Y36F and N28L) (antibody)
chain 1: B2 VH with W59I
chain 2: B2 VL with R34G, F41Y
